Test results as given in patent publication US6683059B1, “Mini-E1A gene and gene products” (priority 1996, dated 2004).

Test system: subclone of SKOV-3.ip1
Assay: long-term survival study, E1A-Cterm lipid:DNA complex, aggressive SKOV-3.ip1 subclone in nude mice
Assay type: in vivo, mouse
Experimental: FIG. 9. Comparison of tumor suppressor activity of full-length E1A and mini-E1ACterm. Mice bearing tumors from an aggressive subclone of the SKOV-3.ip1 cell line were injected with the treatment compounds indicated. […] As also shown, while all nine control animals were dead by that time, none of the animals receiving full-length E1A or mini-E1ACterm had died. Mini-E1ACterm was equivalent to full-length E1A in tumor suppression.
Long-term survival studies were performed using the E1A-Cterm mini-gene in a tumor engraftment model and DNA-lipid formulations as described above. In this study, it appears that the subclone of SKOV-3.ip1 used may have been even more aggressive in tumor formation than the SKOV-3.ip1 parent used to induce tumors in the nude mice since no control mice survived for more than about 35 days. The protocol was otherwise as in the long-term study above except that: (i) 10 mice were used in each group receiving E1A formulations and 9 mice were used in the control group; (ii) 5% dextrose was used for control injections; and (iii) a lipid:DNA ratio of 10:1 w as used for the treatment formulations however, as above, each injection contained 15 μg of DNA.

B1: mini-E1ACterm: mini-E1A construct in pcDNA1.1 encoding E1A 186-289; expected polypeptide about 80 amino acids, 209-289, SEQ ID NO:1 (nucleic acid)
chain: CCTGTGTCTGAACCTGAGCCTGAGCCCGAGCCAGAACCGGAGCCTGCAAGACCTACCCGCCGTCCTAAAATGGCGCCTGCTATCCTGAGACGCCCGACATCACCTGTGTCTAGAGAATGCAATAGTAGTACGGATAGCGTGGACTCCGGTCCTTCTAACACACCTCCTGAGAGACACCCGGTGGTCCCGCTGTGCCCCATTAAACCAGTTGCCGTGAGAGTTGGTGGGCGTCGCCAGGCTGTGGAATGTATCGAGGACTTGCTTAACGAGCCTGGGCAACCTTTGGACTTGAGCTGTAAACGCCCCAGGCCATAA
modifications: pcDNA1.1 vector
About day 35, lipid:DNA 10:1, 15 μg DNA per injection, 10 mice per group
  animals alive when the last dextrose control mouse died: 100%
Visual inspection, the 4 surviving mice
  tumor masses in surviving mice after 21 weeks: no signs of such tumor masses
